The text below walks through data of US20050244406A1 (G2 THERAPIES, published 2005).

Residue numbers refer to the chain shown, from its start.

Assay [1] concerns the target T1, human C5aR (human, UniProt P21730 1-350).
T1 chain: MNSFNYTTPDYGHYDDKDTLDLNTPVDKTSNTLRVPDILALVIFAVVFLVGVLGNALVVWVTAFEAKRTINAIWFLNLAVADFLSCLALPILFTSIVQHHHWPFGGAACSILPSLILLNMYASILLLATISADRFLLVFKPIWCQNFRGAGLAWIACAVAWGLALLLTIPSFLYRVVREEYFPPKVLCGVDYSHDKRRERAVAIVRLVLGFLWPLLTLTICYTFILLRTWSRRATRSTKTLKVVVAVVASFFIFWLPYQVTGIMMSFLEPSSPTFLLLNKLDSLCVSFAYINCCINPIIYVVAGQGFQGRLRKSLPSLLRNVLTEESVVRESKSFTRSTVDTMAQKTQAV
Description: cell-based or functional assay.

For assay [2], the target named is T2, C5aR N-terminal peptide (residues 9-29), PEPI (human).
T2 construct: Synthetic peptide (Biosource), residues 9-29 of C5aR; also called C5aR N-terminal peptide 9-29
T2 peptide: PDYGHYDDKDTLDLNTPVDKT
As to the kind of experiment: ELISA, PEPI coated at 1 µg/ml. The method, then:
ELISAs were performed as described in Current Protocols in Immunology (Unit 2.1) (Edited by J. F. Coligan, A. M. Kruisbeek, D. B. Margulies, E. M. Shevach and W. Strober), John Wiley and Sons, New York. Briefly, 96-well flat bottom ELISA plates (Maxisorp; Nunc) were coated with 1 μg/ml protein (PEPI or OPG) in PBS at 37° C. for 1 hr, then blocked with BSA at 4° C. overnight. The plates were then washed, incubated with antibodies, washed and incubated with peroxidase-conjugated sheep anti-mouse IgG antibody. The substrate used was TMB substrate reagent (PharMingen).
ELISA assays were performed as described above to measure the reactivity of MAbs 6C12, 12D4, 7F3, with PEPI and OPG. OPG is a member of the TNF-receptor superfamily which binds specifically to its ligand TNFSF11/OPGL. More specifically, OPG is an osteoblast-secreted decoy receptor that functions as a negative regulator of bone resorption.
MAbs 6C12, 12D4 and 7F3 were used in the ELISA as purified proteins at a concentration of 1 μg/mL. MAb 9C1 (which is specific for OPG) and MAb 11B9 (which recognises PEPI) were used as positive controls. These control MAbs were used in the form of undiluted tissue culture supernatant.
Background: ELISA stands for enzyme-linked immunosorbent assay.

The next assay deals with T3, CX3CR1 (V28) (UniProt P49238 1-355, limits assumed).
T3 construct: whole, on cells; also called L1.2 V28
T3 sequence (looked up): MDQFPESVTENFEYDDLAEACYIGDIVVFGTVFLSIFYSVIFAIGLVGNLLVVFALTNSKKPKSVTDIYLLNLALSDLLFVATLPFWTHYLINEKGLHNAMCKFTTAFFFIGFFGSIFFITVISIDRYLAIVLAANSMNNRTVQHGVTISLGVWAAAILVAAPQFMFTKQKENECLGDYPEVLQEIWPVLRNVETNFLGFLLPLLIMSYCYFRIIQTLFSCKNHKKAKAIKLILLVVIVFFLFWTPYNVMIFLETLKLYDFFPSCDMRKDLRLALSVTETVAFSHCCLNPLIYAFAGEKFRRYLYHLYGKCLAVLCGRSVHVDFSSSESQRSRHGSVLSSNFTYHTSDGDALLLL
As to the kind of experiment: flow cytometry on transfected L1.2 cells. For orientation: A flow cytometer gives signals particle by particle.

A further assay deals with T4, CXCR2 (UniProt P25025 1-360, limits assumed).
T4 construct: whole, on cells; also called L1.2CXCR2
T4 sequence (looked up): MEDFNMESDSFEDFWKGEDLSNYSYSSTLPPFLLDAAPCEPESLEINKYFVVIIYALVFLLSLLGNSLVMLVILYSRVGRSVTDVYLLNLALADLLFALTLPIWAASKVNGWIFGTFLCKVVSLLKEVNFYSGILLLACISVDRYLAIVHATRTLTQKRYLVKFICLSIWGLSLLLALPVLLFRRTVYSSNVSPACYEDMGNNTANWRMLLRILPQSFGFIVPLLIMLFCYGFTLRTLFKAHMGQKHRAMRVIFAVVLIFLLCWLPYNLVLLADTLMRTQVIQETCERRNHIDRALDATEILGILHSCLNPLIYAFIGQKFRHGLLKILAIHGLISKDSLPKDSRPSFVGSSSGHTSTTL
As to the kind of experiment: flow cytometry on transfected L1.2 cells.

In assay [3] the target is T1, human C5aR. As to the kind of experiment: flow cytometry on L1.2 cells with human C5aR, MAb 50 ug/ml, with PEPI 1-100 µM. The method, then:
Anti-C5aR MAbs were added at 50 ug/ml, to a C5aR N-terminal synthetically produced peptide (residues 9-29) known as “PEPI” (Biosource; Eldridge) at concentrations ranging from 1 to 100 μM. Mouse L1.2 cells transfected with human C5a receptor and resuspended in 1% bovine serine albumin (BSA; GibcoBRL) (1×10^7/ml) were then added to give a total volume of 100 μl. The cells were incubated for 30 min at 4° C. and washed once with 0.1% BSA. Fluorescein (FITC) conjugated, sheep anti-mouse IgG, F(ab′)2 (Jackson Immunoresearch Laboratories Inc.) was used as a secondary Ab (1:200) and incubated for 15 min at 4° C., followed by an additional washing step with 0.1% BSA The cells were resuspended in 0.1% BSA and analysed by flow cytometry.

Assay [4] concerns the target T1, human C5aR. Description: flow cytometry on L1.2 C5aR transfectants.

B1: MAb 7F3 (antibody, V domains shown)
VH: QVQLQQSGPELVKPGASVKISCKASGYAFSNSWMNWVKQRPGKGLEWIGRIYPGDGDTKYNGKFKGKATLTADKSSSTAYMQLSSLTSEDSAVYFCARFLLISTVTAVDYWGQGTTLTVSS
VL: DVVMTQSPLSLPVSLGNQASISCRSSQSLVHSNGNTYLHWYLQKPGQSPKLLIYKVSNRFSGVPDRFSGSGSGTDFSLKISRVEAEDLGVYFCSQSTLVPLTFGAGTKLELK
notes: Murine monoclonal antibody from hybridoma ECACC 00110609; also called monoclonal antibody 7F3
Regarding B1, in the assay with human C5aR [1], the “neutrophil migration towards C5a” value amounted to 140 fold reduction. Besides, the binding result in assay [2] is listed as “no binding (tested: 1 µg/mL)”; in the assay with CX3CR1 (V28), “no binding”; in the assay with CXCR2 it was “no binding”.

B2: MAb 6C12 (antibody, IgG3, V domains shown)
VH: QVQLQQSGPEVVKPGASVKISCKASGYAFSRSWMNWVKQRPGKGLEWIGRIDAGDGDTKYNGKFKGKATLTADKSSSTAYMQLSSLTSEDSAVYFCASLLITTVVGAMDYWGQGTSVTVSS
VL: B1 VL with S7I, N17D, A19T, V30I, S77T, L88M, L98H, L101P, A105G, L111I
notes: Murine monoclonal antibody from hybridoma ECACC 02090226; also called 6C12 M12
Take B2: the binding result in assay [2] is listed as “no binding (tested: 1 µg/mL)”; with CX3CR1 (V28), “no binding”; in the assay with CXCR2, “no binding”; in the assay with human C5aR [3], “binds”.

B3: MAb 12D4 (antibody, IgG3, V domains shown)
VH: QVQLKESGPGLVAPSQSLSITCTVSGFSLTSYGVDWVRQSPGKGLEWLGVIWGVGSTNYNSALKSRLSISKDNSKSQVFLKMNSLQTDDAAMYYCASHYGYDGLGFAYWGQGTLVTVSV
VL: B1 VL with S7T, N17D, N33S, D75H, S77T, V90I, L101P, A105G, L111I
notes: Murine monoclonal antibody from hybridoma ECACC 02090227; also called 12D4-P9
Regarding B3, the binding result in assay [2] is reported as “no binding (tested: 1 µg/mL)”; with CX3CR1 (V28) it was “no binding”; with CXCR2, “no binding”; with human C5aR [4] it was “binds”.
